The record followed here is patent US20120316071A1 (published 2012).

In assay [1] the target is T1, rHuman IGF-1 sR, (IGF-1 sR), CF (R&D Systems Cat#391-GR) (human, UniProt P08069 31-932).
T1 construct: Bought recombinant soluble receptor; The column head prints only 'IGF-1'; also called insulin-like growth factor-1 soluble receptor
Description: ECL multispot (MSD), antigen spotted, Fab in solution.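 Note: purified Fab incubated 1 h at 20 °C on antigen-spotted wells, bound Fab detected via TAG detection antibody, ECL compared with each well's blank, ratio of 4 or above scored as hit.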

The target of assay [2] is T2, rHuman Notch-1/Fc Chimera, CF (R&D Systems Cat#3647-TK) (human, UniProt P46531 19-526).
T2 construct: Bought recombinant Fc chimera; Fc part of the bought chimera not given
The assay is described as above.

Assay [3] concerns the target T3, rHuman P-Cadherin/Fc Chimera, CF (R&D Systems Cat#861-PC) (human, UniProt P22223 108-654).
T3 construct: Bought recombinant Fc chimera; Fc part of the bought chimera not given
The description is as above.

Assay [4] concerns the target T4, rHuman EGF R/Fc Chimera, CF (R&D Systems Cat#344-ER) (human, UniProt P00533 25-645).
T4 construct: Bought recombinant Fc chimera; also called epidermal growth factor receptor; Fc part of the bought chimera not given
The assay is described as above.

In assay [5] the target is T5, rHuman ErbB2/Fc Chimera, CF (R&D Systems Cat#1129-ER) (human, UniProt P04626 23-652).
T5 construct: Bought recombinant Fc chimera; also called human epidermal growth factor 2 receptor; Fc part of the bought chimera not given
Described as above.

The target in assay [6] is T6, rHuman HGF R/c-MET/Fc Chimera, CF (R&D Systems Cat#358-MT/CF) (human, UniProt P08581 25-932).
T6 construct: Bought recombinant Fc chimera; also called HGF R/Fc; hepatocyte growth factor receptor; Fc part of the bought chimera not given
Described as above.

Assay [7] addresses T7, rHuman Erythropoietin R/Fc Chimera, CF (R&D Systems Cat#963-ER) (human, UniProt P19235 25-250).
T7 construct: Bought recombinant Fc chimera; also called EPO R; EPO R/Fc; Fc part of the bought chimera not given
T7 sequence (looked up): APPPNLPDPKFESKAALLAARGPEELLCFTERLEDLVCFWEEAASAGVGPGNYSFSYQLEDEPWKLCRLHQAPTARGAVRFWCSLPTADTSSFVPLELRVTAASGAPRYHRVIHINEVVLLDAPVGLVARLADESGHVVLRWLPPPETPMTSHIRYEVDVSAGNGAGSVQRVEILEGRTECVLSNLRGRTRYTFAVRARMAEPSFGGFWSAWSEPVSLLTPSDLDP
The assay is described as above.

Assay [8] has as its target T8, rHuman CD44/Fc Chimera, CF (R&D Systems Cat#3660-CD) (human, UniProt P16070 21-220).
T8 construct: Bought recombinant Fc chimera; Fc part of the bought chimera not given
The assay is described as above.

In assay [9] the target is T9, rHuman HGF R/c-MET/Fc Chimera, CF (R&D Systems Cat#358-MT/CF) (human, UniProt P08581 25-932).
T9 construct: Bought recombinant protein; also called HGF R/Fc; hepatocyte growth factor receptor
Kind of assay: ECL multispot (MSD) binding assay, antigen spotted on plate.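 Note: purified Fab incubated 1 h at 20 °C on antigen spots, detected with TAG-labelled antibody, electrochemiluminescence compared with each well's blank, signal-to-blank ratio ≥4 counted as hit.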

Assay [10] deals with T10, Recombinant Human DLL4 (R&D Systems Cat#1506-D4/CF) (human, UniProt Q9NR61 27-524).
T10 construct: Bought recombinant protein; also called delta-like protein 4; rHuman DLL4
The description is as above.

The target of assay [11] is T11, rHuman EGF R/Fc Chimera, CF (R&D Systems Cat#344-ER) (human, UniProt P00533 25-645).
T11 construct: Bought recombinant protein; also called epidermal growth factor receptor
The assay is described as above.

The target in assay [12] is T12, rHuman P-Cadherin/Fc Chimera, CF (R&D Systems Cat#861-PC) (human, UniProt P22223 108-654).
T12 construct: Bought recombinant protein
Described as above.

Assay [13] addresses T13, rHuman IGF-1 sR, (IGF-1 sR), CF (R&D Systems Cat#391-GR) (human, UniProt P08069 31-932).
T13 construct: Bought recombinant soluble receptor; also called insulin-like growth factor-1 soluble receptor
Described as above.

For assay [14], the target named is T14, rHuman ErbB2/Fc Chimera, CF (R&D Systems Cat#1129-ER) (human, UniProt P04626 23-652).
T14 construct: Bought recombinant protein; also called human epidermal growth factor 2 receptor
The assay is described as above.

B1: Fab VH1-46_IGHD6-6*01_IGHJ1*01 S102A/S103P/S104F/H111F (APFF) & L6_IGKJ1*01 S28H (Fab, V domains shown)
VH: QVQLVQSGAEVKKPGASVKVSCKASGYTFTSYYMHWVRQAPGQGLEWMGIINPSGGSTSYAQKFQGRVTMTRDTSTSTVYMELSSLRSEDTAVYYCAREEYAPFSAEYFQFWGQGTLVTVSS
VL: EIVLTQSPATLSLSPGERATLSCRASQHVSSYLAWYQQKPGQAPRLLIYDASNRATGIPARFSGSGSGTDFTLTISSLEPEDFAVYYCQQRSNWPPWTFGQGTKVEIKR
notes: Fab; VH cloned into Plasmid A (CH1, His6 and Flag tags) and VL into Plasmid C (kappa CL); also called APFF / S28H
With B1, the ECL signal turned out to be 355 in [1]; 482 in assay [2]; 447 in [3]; 435 in assay [4]; 381 in [5]; 346 in [6]. Further, the ECL signal in assay [7] came out at 517; in assay [8], 513.

B2: Fab VH1-46_IGHD6-6*01_IGHJ1*01 S102A/S103P/S104F/H111F (APFF) & L6_IGKJ1*01 (Fab, V domains shown)
VH: QVQLVQSGAEVKKPGASVKVSCKASGYTFTSYYMHWVRQAPGQGLEWMGIINPSGGSTSYAQKFQGRVTMTRDTSTSTVYMELSSLRSEDTAVYYCAREEYAPFSAEYFQFWGQGTLVTVSS
VL: not shown
notes: Tested as Fab made in E. coli: VH in Plasmid A (CH1, His6 and Flag tags), VL in Plasmid C (kappa CL); also called APFF / parent; H:APFF & L:wt
Consider B2, for which the ECL signal in [9] came to 347; in [10], 172000; in [11], 370; in assay [12], 450; in assay [13], 433; in [14], 312.

B3: Fab VH1-46_IGHD6-6*01_IGHJ1*01 S102A/S103P/S104F/H111F (APFF) & L6_IGKJ1*01 S28R (Fab, V domains shown)
VH: QVQLVQSGAEVKKPGASVKVSCKASGYTFTSYYMHWVRQAPGQGLEWMGIINPSGGSTSYAQKFQGRVTMTRDTSTSTVYMELSSLRSEDTAVYYCAREEYAPFSAEYFQFWGQGTLVTVSS
VL: EIVLTQSPATLSLSPGERATLSCRASQRVSSYLAWYQQKPGQAPRLLIYDASNRATGIPARFSGSGSGTDFTLTISSLEPEDFAVYYCQQRSNWPPWTFGQGTKVEIKR
notes: Fab; VH cloned into Plasmid A (CH1, His6 and Flag tags) and VL into Plasmid C (kappa CL); also called APFF / S28R
In the case of B3, the ECL signal in assay [1] was determined as 437; in assay [2], 425; in assay [3], 395; in [4], 403; in assay [5], 318; in [6], 378. Also, the ECL signal in [7] amounted to 542; in assay [8] it was 378.

B4: Fab VH1-46_IGHD6-6*01_IGHJ1*01 S102A/S103P/S104F/H111F (APFF) & L6_IGKJ1*01 S28W (Fab, V domains shown)
VH: QVQLVQSGAEVKKPGASVKVSCKASGYTFTSYYMHWVRQAPGQGLEWMGIINPSGGSTSYAQKFQGRVTMTRDTSTSTVYMELSSLRSEDTAVYYCAREEYAPFSAEYFQFWGQGTLVTVSS
VL: EIVLTQSPATLSLSPGERATLSCRASQWVSSYLAWYQQKPGQAPRLLIYDASNRATGIPARFSGSGSGTDFTLTISSLEPEDFAVYYCQQRSNWPPWTFGQGTKVEIKR
notes: Fab; VH cloned into Plasmid A (CH1, His6 and Flag tags) and VL into Plasmid C (kappa CL); also called APFF / S28W
As for B4, the ECL signal amounted to 489 in assay [1]; 349 in [2]; 385 in [3]; 283 in [4]; 316 in assay [5]; 414 in [6]. Also, the ECL signal in assay [7] was determined as 489; in [8] it was 404.

B5: Fab VH1-46_IGHD6-6*01_IGHJ1*01 S102A/S103P/S104F/H111F (APFF) & L6_IGKJ1*01 S28I (Fab, V domains shown)
VH: QVQLVQSGAEVKKPGASVKVSCKASGYTFTSYYMHWVRQAPGQGLEWMGIINPSGGSTSYAQKFQGRVTMTRDTSTSTVYMELSSLRSEDTAVYYCAREEYAPFSAEYFQFWGQGTLVTVSS
VL: EIVLTQSPATLSLSPGERATLSCRASQIVSSYLAWYQQKPGQAPRLLIYDASNRATGIPARFSGSGSGTDFTLTISSLEPEDFAVYYCQQRSNWPPWTFGQGTKVEIKR
notes: Fab; VH cloned into Plasmid A (CH1, His6 and Flag tags) and VL into Plasmid C (kappa CL); also called APFF / S28I
Consider B5, for which the ECL signal in assay [1] stood at 353; in assay [2] it was 442; in assay [3] it was 416; in [4], 386; in assay [5] it was 265; in assay [6], 369. Further, the ECL signal in assay [7] worked out at 450; in assay [8], 412.

B6: Fab VH1-46_IGHD6-6*01_IGHJ1*01 S102A/S103P/S104F/H111F (APFF) & L6_IGKJ1*01 S30L (Fab, V domains shown)
VH: QVQLVQSGAEVKKPGASVKVSCKASGYTFTSYYMHWVRQAPGQGLEWMGIINPSGGSTSYAQKFQGRVTMTRDTSTSTVYMELSSLRSEDTAVYYCAREEYAPFSAEYFQFWGQGTLVTVSS
VL: EIVLTQSPATLSLSPGERATLSCRASQSVLSYLAWYQQKPGQAPRLLIYDASNRATGIPARFSGSGSGTDFTLTISSLEPEDFAVYYCQQRSNWPPWTFGQGTKVEIKR
notes: Fab; VH cloned into Plasmid A (CH1, His6 and Flag tags) and VL into Plasmid C (kappa CL); also called APFF / S30L
Consider B6, for which the ECL signal in [1] was 332; in assay [2], 389; in assay [3], 351; in assay [4] it was 406; in assay [5], 270; in assay [6], 315. Also, the ECL signal in [7] was determined as 540; in assay [8] it was 295.

B7: Fab VH1-46_IGHD6-6*01_IGHJ1*01 S102A/S103P/S104F/H111F (APFF) & L6_IGKJ1*01 S30C (Fab, V domains shown)
VH: QVQLVQSGAEVKKPGASVKVSCKASGYTFTSYYMHWVRQAPGQGLEWMGIINPSGGSTSYAQKFQGRVTMTRDTSTSTVYMELSSLRSEDTAVYYCAREEYAPFSAEYFQFWGQGTLVTVSS
VL: EIVLTQSPATLSLSPGERATLSCRASQSVCSYLAWYQQKPGQAPRLLIYDASNRATGIPARFSGSGSGTDFTLTISSLEPEDFAVYYCQQRSNWPPWTFGQGTKVEIKR
notes: Fab; VH cloned into Plasmid A (CH1, His6 and Flag tags) and VL into Plasmid C (kappa CL); also called APFF / S30C
B7: the ECL signal in assay [1] amounted to 1030; in assay [2], 1470; in assay [3] it was 1690; in [4] it was 1190; in assay [5], 1010; in [6], 1230. Also, the results for the ECL signal in assay [7] and in assay [8] were 1790 and 1080, respectively.

B8: Fab VH1-46_IGHD6-6*01_IGHJ1*01 S102A/S103P/S104F/H111F (APFF) & L6_IGKJ1*01 S28M (Fab, V domains shown)
VH: QVQLVQSGAEVKKPGASVKVSCKASGYTFTSYYMHWVRQAPGQGLEWMGIINPSGGSTSYAQKFQGRVTMTRDTSTSTVYMELSSLRSEDTAVYYCAREEYAPFSAEYFQFWGQGTLVTVSS
VL: EIVLTQSPATLSLSPGERATLSCRASQMVSSYLAWYQQKPGQAPRLLIYDASNRATGIPARFSGSGSGTDFTLTISSLEPEDFAVYYCQQRSNWPPWTFGQGTKVEIKR
notes: Fab; VH cloned into Plasmid A (CH1, His6 and Flag tags) and VL into Plasmid C (kappa CL); also called APFF / S28M
Regarding B8, the ECL signal worked out at 341 in assay [1]; 382 in assay [2]; 410 in [3]; 320 in assay [4]; 271 in [5]; 305 in assay [6]. Moreover, the ECL signal in assay [7] stood at 360; in assay [8], 313.

B9: Fab VH1-46_IGHD6-6*01_IGHJ1*01 S102A/S103P/S104F/H111F (APFF) & L6_IGKJ1*01 S30D (Fab, V domains shown)
VH: QVQLVQSGAEVKKPGASVKVSCKASGYTFTSYYMHWVRQAPGQGLEWMGIINPSGGSTSYAQKFQGRVTMTRDTSTSTVYMELSSLRSEDTAVYYCAREEYAPFSAEYFQFWGQGTLVTVSS
VL: EIVLTQSPATLSLSPGERATLSCRASQSVDSYLAWYQQKPGQAPRLLIYDASNRATGIPARFSGSGSGTDFTLTISSLEPEDFAVYYCQQRSNWPPWTFGQGTKVEIKR
notes: Fab; VH cloned into Plasmid A (CH1, His6 and Flag tags) and VL into Plasmid C (kappa CL); also called APFF / S30D
B9: the ECL signal in [1] is 357; in assay [2] it was 415; in assay [3], 543; in assay [4], 325; in assay [5], 284; in assay [6] it was 312. Moreover, the ECL signal in assay [7] amounted to 496; in [8], 434.
